We go through 105 substances from the supplement of paper PMC12042874.

± gives the uncertainty stated by the source.

A short description of the data set: amyloid nucleation score (Sup35N fusion, yeast selection) (log enrichment); library NNK1; higher = more nucleation; inactive = no reads after selection. Put shortly: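 The nucleation score is the DiMSum log enrichment of output over input reads, centred on the mode score of non-aggregating sequences. Only sequences with 100 or more input reads were scored, using Illumina sequencing of input and output plasmid inserts. Psi-negative yeast expressing Sup35N fused to peptides of 20 random codons were induced 24 hours with 100 μM copper sulfate and grown 7 days at 30°C on medium lacking adenine and uracil.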
RLCAINHPLCTFSQTMAWVH showed an amyloid nucleation score of 0.272 ± 0.29.

In turn, RLFPYQFM registered an amyloid nucleation score of -0.286 ± 0.63.

Consider RLFWLRNLPLWASYK, for which the amyloid nucleation score is 0.07 ± 0.47.

RLGCGSM came in with an amyloid nucleation score of 0.769 ± 0.45.

On to RLGPYSATWFVGKGKREGGV, for which the amyloid nucleation score amounted to 0.571 ± 0.55.

Substance RLHMRRRPFVNTHVS yielded an amyloid nucleation score of 0.54 ± 0.42.

RLHSS registered an amyloid nucleation score of -0.036 ± 0.32.

RLIHRPVWV came in with an amyloid nucleation score of 0.526 ± 0.48.

Substance RLKHDWWITVCLYRVQLNTV returned an amyloid nucleation score of 1.59 ± 0.55.

For RLLLYG, the amyloid nucleation score entry is “inactive”.

For RLLRPFGWLANSRLTTVWFH, the amyloid nucleation score was -0.122 ± 0.68.

The substance RLLWRWWRAVDVRGHDRLNL returned an amyloid nucleation score of -0.306 ± 1.2.

Turning to RLNLSLSVR, the amyloid nucleation score amounted to 0.517 ± 0.55.

For RLNNLWKFDEVLLGSSNRTR, the amyloid nucleation score was -1.24 ± 0.44.

RLNNRRFLSWRCTNNQCWRV registered an amyloid nucleation score of -0.159 ± 0.86.

RLNWVYSRNNASLSGVYMKR registered an amyloid nucleation score of 0.116 ± 0.24.

RLRDTNVYTTQFFVFYLMNW: the amyloid nucleation score is 6.677 ± 0.051.

In turn, RLSLTINFGNKFRCITGQFD returned an amyloid nucleation score of 4.01 ± 0.091.

The substance RLSSSCSSAEDWYRKGHLLK yielded an amyloid nucleation score of -0.063 ± 0.4.

For RLSYISPPSVYLALSRSRMD, the amyloid nucleation score was 0.229 ± 0.75.

Consider RLVKSEDSNKNGLDLCRYEL, for which the amyloid nucleation score is 0.753 ± 0.56.

As for RLWSRPSS, the amyloid nucleation score came to 1.14 ± 0.79.

Substance RLYFRSSYDCDETRWKEKYM came in with an amyloid nucleation score of 0.049 ± 0.38.

Regarding RLYNLTSVRKFVLLSSM, the amyloid nucleation score came out at 0.235 ± 0.4.

The substance RMEQSCWMTSECRRWKGVWL returned an amyloid nucleation score of 0.827 ± 0.44.

In turn, RMFPCYIAV gave an amyloid nucleation score of 0.015 ± 0.27.

Regarding RMLCYEFCCLNLDVGIYCAS, the amyloid nucleation score entry is “inactive”.

On to RMLDY, for which the amyloid nucleation score came to 0.318 ± 1.2.

RMSLLYLSSVKLFNWHAALG came in with an amyloid nucleation score of -0.465 ± 0.6.

Turning to RNDHSRDHPFLDISWVCLGQ, the amyloid nucleation score was determined as 0.58 ± 1.2.

For the substance RNDTSDVYGSSGRSNRP, the amyloid nucleation score was 0.007 ± 0.37.

Take RNFCSSEGPSRHERLCNTKR: the amyloid nucleation score was -0.542 ± 0.68.

Turning to RNGPSWYSAIPY, the amyloid nucleation score result is “inactive”.

RNHDANFPCRVDGPLQSTVR showed an amyloid nucleation score of 0.135 ± 0.4.

Turning to RNLYQFM, the amyloid nucleation score is 0.203 ± 0.27.

Take RNSSGRGERLLVQYAQKKKR: the amyloid nucleation score is -0.136 ± 0.41.

RNWDMGHKQP returned an amyloid nucleation score of 2.66 ± 0.12.

Substance RNWLLDTNSLQVMSPYIFEV returned an amyloid nucleation score of -0.41 ± 0.74.

Regarding RNYTVKKMNLC, the amyloid nucleation score result is “inactive”.

As for RPGVNLWVLFVTMQTPEIRL, the amyloid nucleation score stood at 3.01 ± 0.11.

Substance RPLALRVQDSPKSFGQSP showed an amyloid nucleation score of 0.145 ± 0.7.

The substance RPLFIMSLFRGWRRIKLHGS showed an amyloid nucleation score of -0.527 ± 0.49.

RPLRCWAIHYGQVYDSSAIL displayed an amyloid nucleation score of 0.987 ± 0.62.

In the case of RPMYHGYHMH, the amyloid nucleation score was found to be 0.483 ± 0.38.

Turning to RPRHIFDNSKVYNMGPYFYD, the amyloid nucleation score came out at 1.59 ± 0.56.

Turning to RPRICLWWSLNQMDVWNRDR, the amyloid nucleation score turned out to be 2.17 ± 0.31.

RPSITNRPC: the amyloid nucleation score is 0.735 ± 0.83.

On to RPTGLDILS, for which the amyloid nucleation score was 3.56 ± 0.1.

In the case of RPYGVNR, the amyloid nucleation score was -0.271 ± 0.66.

For the substance RQDARE, the amyloid nucleation score was 0.004 ± 0.42.

Take RQLFIGGAPDLC: the amyloid nucleation score was found to be 0.216 ± 0.59.

RQNGRKDPGNVKRGITCR registered an amyloid nucleation score of 0.066 ± 0.38.

For RQQMTRTCVNDGS, the amyloid nucleation score was -1.02 ± 2.4.

As for RQSQRWYFLLCGYYKAFFRR, the amyloid nucleation score stood at 1.63 ± 0.73.

RREFYFLLVIALKSV: the amyloid nucleation score is 1.32 ± 0.31.

RRGVV yielded an amyloid nucleation score of 0.659 ± 0.93.

RRGVYSKVFAENHVLCMLSL gave an amyloid nucleation score of 4.01 ± 0.067.

The substance RRHWTVMVMNIPVGMFIVIR yielded an amyloid nucleation score of 0.155 ± 0.27.

RRILGRYRC showed an amyloid nucleation score of -0.129 ± 1.1.

Substance RRLFMGPI displayed an amyloid nucleation score of 0.802 ± 1.

Substance RRNVYFYVWYVSPNVMKYSN yielded an amyloid nucleation score of 3.84 ± 0.1.

Consider RRPENKCYHPLVCDFVAVWF, for which the amyloid nucleation score stood at 0.476 ± 1.1.

In turn, RRRASGHRASY registered an amyloid nucleation score of -0.52 ± 0.39.

Regarding RRRHWVSSAGGKRRHLVFCA, the amyloid nucleation score worked out at 1.22 ± 0.46.

Regarding RRRRSDKDVYPFQSFMFNVV, the amyloid nucleation score is 0.476 ± 0.3.

In turn, RRRYGRWMLCCCVVWV came in with an amyloid nucleation score of -0.147 ± 0.37.

In turn, RRSESCMFYVMWYGNRYLEG came in with an amyloid nucleation score of 0.638 ± 0.18.

Turning to RRSWVFFVDWFIFVCLCVNG, the amyloid nucleation score result was “inactive”.

RRVLSRGSAVSWALSSGGD: the amyloid nucleation score was -0.586 ± 0.46.

Substance RRVTCGLQGVLRENR returned an amyloid nucleation score of 0.4 ± 0.46.

Turning to RRYCDTTVFHGYSVSCRAYG, the amyloid nucleation score is -0.842 ± 0.74.

Consider RRYHGGDWSLLVNQLN, for which the amyloid nucleation score stood at 0.374 ± 0.23.

With RSCLDGSRVMVSWR, the amyloid nucleation score was determined as 0.305 ± 0.46.

On to RSDVVVFHQLS, for which the amyloid nucleation score is -0.257 ± 1.7.

Take RSDYVNDGEYWAFRDRMMNM: the amyloid nucleation score was -0.126 ± 0.35.

In turn, RSEYAPRTNYK showed an amyloid nucleation score of -0.237 ± 0.48.

The substance RSFCRSSVIFVFP displayed an amyloid nucleation score of 2.79 ± 0.19.

With RSFWYDHGIRVGLRLYNCSM, the amyloid nucleation score result was “inactive”.

In turn, RSHHIWGY showed an amyloid nucleation score of 0.353 ± 0.48.

RSHVVTGYARSGRGLLATDM returned an amyloid nucleation score of 0.396 ± 0.45.

As for RSKNWMVNRDWGSKVDRLAN, the amyloid nucleation score worked out at 0.089 ± 0.86.

Substance RSLFMAQVGHMWGRNVIRGI displayed an amyloid nucleation score of -0.29 ± 1.7.

The substance RSLRVA yielded an amyloid nucleation score of -0.214 ± 1.2.

The substance RSMSTIRIEGSESTSFISS returned an amyloid nucleation score of -0.812 ± 1.7.

As to RSMYSQCVLIMGAPTRISGL, the amyloid nucleation score amounted to 6.295 ± 0.054.

Take RSQKLGHIGRDTLQWGLYCS: the amyloid nucleation score is -0.024 ± 0.38.

For the substance RSRSGC, the amyloid nucleation score was 0.441 ± 0.51.

Substance RSSLNTCWMGSYNVLGTRTG displayed an amyloid nucleation score of 4.39 ± 0.11.

With RSSNLVCYFFSVWWY, the amyloid nucleation score worked out at 2.02 ± 0.44.

For RSSSCKWV, the amyloid nucleation score is -0.53 ± 0.75.

In turn, RSSSDKPSKTTTWRMLAGTG registered an amyloid nucleation score of -0.113 ± 0.7.

As to RSSVVWLWSHYC, the amyloid nucleation score was determined as 0.588 ± 0.56.

Consider RSVWDRWFDPIMTFEQESTW, for which the amyloid nucleation score was -0.812 ± 1.7.

Substance RSWPHGCVAEQNTCSPHKLA displayed an amyloid nucleation score of 1.48 ± 0.55.

Turning to RSYLCDREYCVFGFCLGIYS, the amyloid nucleation score was 3.44 ± 0.15.

RSYVVSPVNY gave an amyloid nucleation score of -1.18 ± 0.76.

The substance RTCYNRDTEMSRGCYTMRVA had an amyloid nucleation score of -0.554 ± 0.77.

RTNVWVAFVDSRSHGQFCQK: the amyloid nucleation score was 3.68 ± 0.18.

The substance RTRTFVNPAAAIHMPPSEET came in with an amyloid nucleation score of 0.049 ± 0.29.

With RTSDLFAIMKVLDIMMSYTE, the amyloid nucleation score result was “inactive”.

RTSPPFNTVYYTGEYEIIEI displayed an amyloid nucleation score of -0.353 ± 0.54.

RTSSWPTLTHEALLRSGDLC: the amyloid nucleation score is -0.637 ± 0.48.

In turn, RTTFA gave an amyloid nucleation score of 0.38 ± 0.33.

Substance RTYSFC displayed an amyloid nucleation score of -0.41 ± 0.93.

In turn, RVCKFKFYQFSSSKC yielded an amyloid nucleation score of 3.75 ± 0.067.
